T1: OX40 on OX40+ HEK293-NFkB-luciferase reporter stable cells (UniProt P43489 29-277)
T1 sequence (looked up): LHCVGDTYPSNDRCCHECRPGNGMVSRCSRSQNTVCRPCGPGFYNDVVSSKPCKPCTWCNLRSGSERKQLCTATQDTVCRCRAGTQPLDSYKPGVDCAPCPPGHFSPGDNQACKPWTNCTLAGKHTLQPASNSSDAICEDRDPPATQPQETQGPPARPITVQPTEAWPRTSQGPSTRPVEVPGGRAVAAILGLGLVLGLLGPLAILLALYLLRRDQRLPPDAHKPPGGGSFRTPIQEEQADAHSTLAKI

B1: OX4D7 (antibody, V domains shown)
VH: QVQLVQSGAEVKKPGASVKVSCKASGYTFTSYYMHWVRQAPGQGLEWMGIINPSGGSTSYAQKFQGRVTMTTDTSTSTAYMELRSLRSDDTAVYYCARDPYSSSWYGAEYFQHWGQGTLVTVSS
VL: QSVLTQPRSVSGSPGQSVTISCTGTSSDGGDYNYVSWYQQHPGQAPKLLIYEVSNRPSGVSNRFSGSKSGNTASLTISGLQAEDEADYYCSSYTSSSTLVVFGGGTKLTVL
B2: OX1C4 (antibody, V domains shown)
VH: EVQLVESGAEVKKPGASVKVSCKTSGYTFTGYYLHWVRQAPGQGLEWMGIINPGDGSTRNAQKFEGRVTMTRDTSTSTVYMELSSLSPEDTAVYYCARDLEYIGSGSLSWFDPWGQGTLVTVSS
VL: LPVLTQPASVSGSPGQSITISCSGTSSDFLTYDLVSWYKQQPGKAPKLMIYDVNKRPSGVSDRFSGSKSGNTASLTISGLQAADEADYYCSSYTSSSTPYVFGTGTKVTVL
B3: OX1D9 (antibody, V domains shown)
VH: QVQLVQSGAEVKKPGASVKVSCKASGYTFTSYGISWVRQALGQRLEWLGWINAGDGETKYSPKFQGRVTITRDTSASTAYMDLSGLTSEDTAVYYCARDFLSTMDYWGQGTLVTVSS
VL: DVVMTQSPSSLSASVGDRVTITCQASQDISNYLNWYQQKPGKAPKLLIYDASNLETGVPSRFSGGGSGTDFTFTISSLQPEDIATYYCQQFDNLPYTFGQGTKVEIK
B4: OX1B2 (antibody, V domains shown)
VH: QVQLVQSGAEVKKPGASVKVSCKASGYTFTSYYMHWVRQAPGQGLEWMGIINPSGGSTSYAQKFQGRVTMTRDTSTSTVYMELSSLRSEDTAVYYCARDYYDSSGYSDYGMDVWGQGTTVTVSS
VL: DIVMTQSPSSLSASVGDRVTITCRASQSISSYLNWYQQKPGKAPKLLIYAASSLQSGVPSRFSGSGSGTDFTLTISSLQPEDFAIYYCQQNYNTRQVTFGQGTRLEIK

Target: T1, OX40 on OX40+ HEK293-NFkB-luciferase …
Experiment: cell-based or functional assay

luciferase activity (RLUs) of OX40+ HEK293-NFkB-luciferase reporter cells, ~6 h stimulation, antibody at 20 µg/ml	Binder
> 50 % of signal observed with purified rhOX40L+anti-His	B1
> 50 % of signal observed with purified rhOX40L+anti-His	B2
> 50 % of signal observed with purified rhOX40L+anti-His	B3
> 50 % of signal observed with purified rhOX40L+anti-His	B4

From patent US20190177422A1 (SORRENTO THERAPEUTICS, published 2019)
